Biological target: T1, human IL-2Rβ (CD122 protein, Fc Tag) (27-239) (human), P14784
T1 chain: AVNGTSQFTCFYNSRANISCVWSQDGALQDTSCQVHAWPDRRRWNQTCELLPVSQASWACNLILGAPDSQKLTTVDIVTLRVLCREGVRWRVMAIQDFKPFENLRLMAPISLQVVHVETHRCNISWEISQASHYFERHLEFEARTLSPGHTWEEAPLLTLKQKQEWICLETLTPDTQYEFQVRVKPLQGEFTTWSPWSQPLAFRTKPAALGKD
Test: competitive binding ELISA (Example 28)

IC50: < 10 µM
Binder: CCYQAMVGDLCDFC (modifications not checked) [IL-2Rβ ligand SEQ ID NO: 83]
